{"source": "a protein production outcome set (Wang et al. 2014)"}
{"assay": "label from the status in PepcDB records"}
{"sequence": "MKKIISLALALALSASAAELKMATTTSTDNTGLLDALKPLYEKESGNTLKWVAVGTGAALKMGEDCNADVLFVHSPKAEKEFMKKGFGVDRTPVMYNDFIIIADKSLASKFKGKNLKESLELIKNEKLTFISRGDKSGTDNKEKSLWKNLGGVPEKQSWYQQSGQGMLASIKIAEEKKGVILTDRGTYIKYEANEKGKPNLVIVNEGDDSLKNFYSVIATNPKHCKNVNYTEASKFIKWVTSDKTLNFIADFKLLNKPLFVIDAKTRKD", "protein production": "failed"}
{"sequence": "MKKILAFLLIAAGSTLFFVFLFIFLSKVFSGEILLSRYIFRIGGFELRWYSTLILMGFLISYFVARKRAKNEGINLEEFDELIFYGVIAGIVGARLYYVLFNLKYYRSLWDALKIWEGGLAIHGAVIGALLTGFLYVRLKKPSFTFLQATDLFTSVLPLGQAIGRWGNFFNYEAFGVPTNLPWKMFVPEPYRPVVYKDYSFFHPTFLYESIWDLLVFFMLSVYFKRYRKRHGEVTCLYFVLYSLGRIVIERLRVDSLMIGNIKAAQLLSAVLILLGFTGFLILRSSQEPKRAF", "protein production": "failed"}
{"sequence": "MKKILASMAVASVAGGTVIGTAQAQTSIAPEDTQSKQASDVVTHENRVTVNVDALRVRTGPSTSNTILGLVSKEQSVPVVDETEDWYKIKYNNTEAYVNKEYATPNHIKVSTTTLRVRTGPSTSNSILGLVGEGEILQVTGEADGWYKIKYNNRDAYVSKDYVSINKSLVKSKKQKVQASRSYTVNVSSLRVRTGPSMSHPVVSVMNKGQVVQVVGEVQDWYRVKLNEGFAYINKDYVSRGTNNTANLPQSIQTESVQQNGTYIVDAAVLRVRTGPANYHPVIGGVLKGQSLQVVDIENGWYKIKYNNRTGYVSGEFVKFLKGSSTQEQTQTKEKLEQAQQPNHEQEKQEVAQQSTREQEKQEVAQQPTREQEKQEVVQQPTREQEKQEPAQNYYVKSSSLNVRSGAGMNYEVIGVVEPNQKIQVVGQQAGWYKINYNGKTGFVGMNYLSKTKVATVEEQPPSEVGTTNENTASGFIKPAAGSYTSGFEKRGGQMHYGLDIAASGTVSVSAAADGVVTRSYYSESYGNVVFISHNMNGQTYTTVYAHLNSRSVSAGQSVKQGQQIGFMGNTGQSEGQHLHFEVHKGEWNAQKSNAVNPKLYIK", "protein production": "failed"}
{"sequence": "MKKILVGIPNYNNAAYIVDTIESVLKQSYSGVDVVVFDNASTDDSVEIIENTFLNNPNVLLKKSASNVGPTMNHNRCLEYAIDNEYDYLKVLSSDDVLLPNIIQEQFELLESEPRGAFATCNMIVTDDKLTKIKDHDFLGSNTDGNAVIKKCASHSANYIGGPSNGLLRVSCIGATRFSPEYKWLSDLKFYCDLLANRPFINTGTNGFFYRRHDNTDSSHVSKIKNLQRKESIRFSGEYGGNFLTKIKIYLRDIKSRLLLEHHHHHH", "protein production": "failed"}
{"sequence": "MKKILVIRNDKIGDFMVCFPAFAMLKQSMPNAEITALVPSYTASLAELCPSIDNVIIDTPNKKDKTEFNRVLQAVKNAQFDAVICFVSDWYNAKLTWKSGIKHRLAPATKVFQFLYNQRLEHHHHHH", "protein production": "failed"}
{"sequence": "MKKKALLPLFLGIMIFLAGCDYSTPEKQDGFFFNTFVQPMKHLLQWLGNDVFHNNFGLAIIVLVLFIRLILLPFMLSNYKNSHMMREKMKVAKPEVDGIQEKVKRARTQEEKMAANQELMEVYKKYDMNPMKSMLGCLPILIQMPIIMGLYFVLKDKLVNGLSEHPHFLWFNLTKPDIWITVIAGVLYFIQAVVSSKTMPQEQRQMGYMMMVISPIMIIWISLQASSALGLYWSVSALFLVIQTHFANIYYSKLAKKEVQPFIEKYEREHNPYSKKKGKNTQVVSKKNKK", "protein production": "failed"}
{"sequence": "MKKKIIIAIVASAITMTHFVGNTYADSKTEVSVTAPYNTNQIAKWLEAHAKPLKTTNPTASLNDLKPLKNMVGSASIVGLGEATHGAHEVFTMKHRIVKYLVSEKGFTNLVLEEGWDRALELDRYVLTGKGNPSQHLTPVFKTKEMLDLLDWIRQYNANPKHKSKVRVIGMDIQSVNENVYNNIIEYIKANNSKLLPRVEEKIKGLIPVTKDMNTFESLTKEEKEKYVLDAKQISALLEENKSYLNGKSKEFAWIKQNARIIEQFTTMLATPPDKPADFYLKHDIAMYENAKWTEEHLGKTIVWGHNGHVSKTNMLSFIYPKVAGQHLAEYYGKRYVSIGTSVYEGQYNVKNSDGEFGPYGTLKSDDPNSYNYIFGQVKKDQFFIDLRKANGVTKTWLNEQHPIFAGITTEGPDIPKTVDISLGKAFDILVQIQKVSPSQVHQLEHHHHHH", "protein production": "not failed"}
{"sequence": "MKKKLFSPIWLLPIVALALGAWLGIKSIKESGVEIQIHFPSATGIDVGKTLVKYQGLTVGKVKDIGIDDDLKGVNVKVMMDYRAKPFLNKETLFWLVTPKASITGVEGLDALFSGNYIAIQPGKGNAATFFEAERQPPPMQIGSEGVMIELTADKLGSLDVGSPVFFRQIPVGSVVSYRLDGNARVIISAFIQEQYARLVKKNSHFWNVSGVKVDASLAGIKVNTESLASILAGGVSFSSDEKAAAAQNGDSFALYDSETSALGGVEVSLTMNDGNGIDKGTRIVYRGISVGSIQSKNLTTTGVTAIAKFEPEYANLLTSDGRFWLEGADISLSGIKNPERLLTGSVINFLPGTNANTALPSSFALQSSAPDLLQAKKRLLTITSAENMGLTAGAEVRYKQLPIGQVLAVKLTKDLSAVEYQLELQPEFASLVRSDSYFIPESALSVDASIEGVSVKTRDLATLTKGAVSLIPGSNNTPVAANARLSLFSSVEEAKQFFERQQRLYFTLTSQDGADVSQGSPIYYKKMQIGRVESVNWQSKTEDFAIKIAIDKQFQPLMQKPKVFWRNSALDVSASLAGIDVAVAPLQGALKGSISLGLLENPLADPTASLKLYENKQLALAQAQAIRLTLSASAKLAAKAAIRYQGHQVGEVTQVKLNADLNTLSATAYLYGEYADHFSSSDAEYHMVEAQISLAGIKAPETLITGPYIGVLPGKSKQKATQFQAKLVESSYANVAEDALKFTLEDSNLGSMKVGTPIFFRGLKVGQIDGYSLSSQGNSVLMQAHIEPQYRHLVNKTSQFWDASGIKVDVGIFSGAQIEAGSLETLLAGGINVATKETTQANNRLSQGAVITLQHKAQTEWQEWAPAQ", "protein production": "failed"}
{"sequence": "MKKKLFYYLFAVLCTATLFTSCSDDDDEVKYPIDTELAGGYVGNLSVNVDGNQMGTTENQKITISQSNKETNQIALSLKNFTFLVNVGDIEVDPCTVKAIDGGYAFEGQQNLDLVQPLGNCPVSISGTVKGSNINIEIGVKVGAPLNQNVKATFVGRKLTGSESSEAKIISFILDDDIVTEQPIINEEEGIVTFKVSDAAVDDDLSGMIPTIVVSSKAKITPASGVAQDFSNGKKVEYTVTAEDGTTKKYSVFIAGSSDYYSFETWKSLNDGAFEEPDGGWATSNTGVWFIKTVYPDVYNGDYPVVKSEDAKDGAVGVKLITLDTKGQAGADWGFIKIPAIPKVTSGSLFLGTFETDIQNTLNSTKFGNPYYSKPISVQFSYKYTPGAVYYTCPDPVKAEAVTEDPNTTDECSVTAVIYEVPYWETVDPDDANNKAYDKRLTGANLYTNTDQVIAMATFSSGVQEDYKDITLTLNYEKDYDPTKKYRFAIVFSSSKNGDKFSGAPGSTLIVDNVKVVAEK", "protein production": "failed"}
{"sequence": "MKKKSFSIVIAGGGSTFTPGIVLMLLDHLEEFPIRKLKLYDNDKERQDRIAGACDVFIREKAPDIEFAATTDPEEAFTDVDFVMAHIRVGKYAMRALDEQIPLKYGVVGQETCGPGGIAYGMRSIGGVLEILDYMEKYSPDAWMLNYSNPAAIVAEATRRLRPNSKILNICDMPVGIEDRMAQILGLSSRKEMKVRYYGLNHFGWWTSIQDQEGNDLMPKLKEHVSQYGYIPKTEAEAVEASWNDTFAKARDVQAADPDTLPNTYLQYYLFPDDMVKKSNPNHTRANEVMEGREAFIFSQCDMITREQSSENSEIKIDDHASYIVDLARAIAYNTGERMLLIVENNGAIANFDPTAMVEVPCIVGSNGPEPITVGTIPQFQKGLMEQQVSVEKLTVEAWAEKSFQKLWQALILSKTVPNARVARLILEDLVEANKDFWPELDQSPTRIS", "protein production": "not failed"}
{"sequence": "MKKKYTIFAISMAVALVLGGEVQSINDSVEAQELQHTVKNVKQTEDFNPTKYANEIENFVKQQNPVSIKSLFSTIALKEKADFEKYGEANAAQVKMLWGSYVFFDFGFVKDSKIIEAIKNNPSVYAKFKKTVNINGTGAFLPGTGSPESISIKNNEDGSNIDSYAYYTPHNPDITKNADKTVVMHGGFRGGYEAGNDTPEIRTFYDKGYNILCVDNRATSLSGGDYVTFGQYESDDVQAWINHYLKDKPDQKIVLYGGSMGASTMMSVLAKNYSSNIKGIIENCGFANIRNELGYVYTMAAIGKNELKDLTGTDFAEDFSVTPMNLQKMMETINNYYIKPKANVDIDGNLPAQGITNAIMPKLFIHGESDLVVPFKDNGQYLATLGDTNNNYKFFVPKAGHGEAQTIDGNGYDKAISDYLNLIFK", "protein production": "failed"}
